Test results as given in patent US20150151000A1 (INDIANA UNIVERSITY RESEARCH AND TECHNOLOGY, published 2015).

Tests used:
[1] = target: T1, CRMP2-His (recombinant collapsin response mediator protein 2, NT647-labeled); assay: microscale thermophoresis, NT647-labeled CRMP2 constant, peptide titrated 0 to 5 µM, Hill fit
T1 construct: Purified on Talon resin and labeled with NT647 for microscale thermophoresis; also called recombinant CRMP2; NT647-labeled CRMP2

[2] = target: CRMP2 (endogenous, rat brain synaptosomes, rat brain lysates and rat dorsal root ganglia lysates) (rat, UniProt P47942 1-572); assay: SPOTS peptide array overlaid with rat brain synaptosome fraction, anti-CRMP2 far-Western

Binder	Kd [1]	binding result [2]
NSSFPSIHCSSWSEE (also called Ct-Dis (CaV1.2 (L)); [2014-2028]; Ct-dis) [Ct-dis peptide (CaV1.2[2014-2028])]	640 nM	binds
YLEWIFKAEEVMLAE (15-mer from the first intracellular loop of CaV2.2; It was immobilised as a spot in the SPOTS array and used as a synthetic peptide in MST; also called L1 (CaV2.2); [388-402]; L1) [L1 peptide (CaV2.2[388-402])]	3120 nM	binds

Now from value to binder:

Kd [1]	binding result [2]	Binder
–	binds	YMEWISKAEEVILAE (Immobilised 15-mer spot; also called L1 peptide of P/Q (CaV2.1)-type channel) [L1 (CaV2.1) peptide]
–	binds	YLDWITQAEDIDPEN (Immobilised 15-mer spot; also called L1 peptide of L (CaV1.2)-type channel) [L1 (CaV1.2) peptide]
–	binds	YRAWIDKAEEVMLAE (Immobilised 15-mer spot; also called L1 peptide of R (CaV2.3)-type channel) [L1 (CaV2.3) peptide]
